Patent publication US20210196796A1 (SYNTHEKINE, published 2021)

B1: ΔD20, SQV_KA (ligand)
chain: APTSSSTKKTQLQLSQLLVLKAILNGINNYKNPKLTRMLTFKFYMPKKATELKHLQCLEEELKPLEEVLNLAQSKNFHLRPRDLISNINVIVLELKGSETTFMCEYADETATIVEFLNRWITFCQSIISTLT
B2: SQILKA (ligand)
chain: APTSSSTKKTQLQLSQLLILLKAILNGINNYKNPKLTRMLTFKFYMPKKATELKHLQCLEEELKPLEEVLNLAQSKNFHLRPRDLISNINVIVLELKGSETTFMCEYADETATIVEFLNRWITFCQSIISTLT
B3: T3G, SQVLKA (ligand)
chain: APGSSSTKKTQLQLSQLLVLLKAILNGINNYKNPKLTRMLTFKFYMPKKATELKHLQCLEEELKPLEEVLNLAQSKNFHLRPRDLISNINVIVLELKGSETTFMCEYADETATIVEFLNRWITFCQSIISTLT
B4: SQVSKA (ligand)
chain: APTSSSTKKTQLQLSQLLVSLKAILNGINNYKNPKLTRMLTFKFYMPKKATELKHLQCLEEELKPLEEVLNLAQSKNFHLRPRDLISNINVIVLELKGSETTFMCEYADETATIVEFLNRWITFCQSIISTLT

Columns and labels:
[1] = target: T1, orthogonal hCD122 receptor (hoRb), hCD122 with H133D and Y134F (human, UniProt P14784 27-550); test: cell-based or functional assay
T1 sequence: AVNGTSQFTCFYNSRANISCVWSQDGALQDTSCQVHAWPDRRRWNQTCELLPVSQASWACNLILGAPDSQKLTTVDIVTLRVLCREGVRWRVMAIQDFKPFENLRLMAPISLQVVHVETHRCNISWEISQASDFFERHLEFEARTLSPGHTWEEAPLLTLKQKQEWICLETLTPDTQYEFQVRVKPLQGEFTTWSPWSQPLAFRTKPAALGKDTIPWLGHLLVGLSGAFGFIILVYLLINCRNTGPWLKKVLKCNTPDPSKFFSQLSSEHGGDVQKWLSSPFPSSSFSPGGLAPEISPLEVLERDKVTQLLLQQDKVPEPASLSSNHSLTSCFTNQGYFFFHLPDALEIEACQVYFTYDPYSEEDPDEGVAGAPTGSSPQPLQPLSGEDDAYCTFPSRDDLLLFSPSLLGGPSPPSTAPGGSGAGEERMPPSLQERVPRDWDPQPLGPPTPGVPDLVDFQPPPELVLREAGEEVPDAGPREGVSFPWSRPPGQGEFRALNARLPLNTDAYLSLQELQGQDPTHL

[2] = target: T1, orthogonal hCD122 receptor (hoRb), …; test: cell-based or functional assay; remark: listed apart in the source
Wherever Relative Proliferation Fold Change 3F8 1:10 is given: reference of the scale not given here.
Wherever Relative Proliferation Fold Change 3F8 1:2 is given: reference of the scale not given here.
Wherever Relative Proliferation Fold Change 3F8 1:50 is given: reference of the scale not given here.
Wherever Relative Proliferation Fold Change NKL 1:10 is given: reference of the scale not given here.
Wherever Relative Proliferation Fold Change NKL 1:2 is given: reference of the scale not given here.
Wherever Relative Proliferation Fold Change NKL 1:50 is given: reference of the scale not given here.

| Binder | 3F8 Ortho Proliferation Signal 1:2 [1] [cts/min] | 3F8 Ortho Proliferation Signal 1:10 [1] [cts/min] | 3F8 Ortho Proliferation Signal 1:50 [1] [cts/min] | Relative Proliferation Fold Change 3F8 1:2 [1] [fold] | Relative Proliferation Fold Change 3F8 1:10 [1] [fold] | Relative Proliferation Fold Change 3F8 1:50 [1] [fold] | NKL Ortho Proliferation Signal 1:2 [2] | NKL Ortho Proliferation Signal 1:10 [2] | NKL Ortho Proliferation Signal 1:50 [2] | Relative Proliferation Fold Change NKL 1:2 [2] [fold] | Relative Proliferation Fold Change NKL 1:10 [2] [fold] | Relative Proliferation Fold Change NKL 1:50 [2] [fold] |
| --- | --- | --- | --- | --- | --- | --- | --- | --- | --- | --- | --- | --- |
| B1 | 1010 | 1270 | 1370 | 1.51 | 1.35 | 1.66 | 6790 | 9390 | 8690 | 0.52 | 0.59 | 0.56 |
| B2 | 38500 | 45700 | 20300 | 45.8 | 34.2 | 34.4 | 55300 | 52500 | 24500 | 4.01 | 3.44 | 1.67 |
| B3 | 31800 | 24400 | 9460 | 20.4 | 19.4 | 7.14 | 58900 | 66900 | 32200 | 3.94 | 3.76 | 1.92 |
| B4 | 47300 | 56600 | 33100 | 0.81 | 1.23 | 1.29 | 59500 | 73700 | 45000 | 1 | 1.73 | 1.91 |
